Source: US20250101111A1 (ARGENX, published 2025)
Changes are numbered by the printed parent chain. Numbers in names are those of the source.

B1: Fc-G236A-MST-HN (other, human, UniProt P01857-1 104-330, looked up)
chain: DKTHTCPPCPAPELLAGPSVFLFPPKPKDTLYITREPEVTCVVVDVSHEDPEVKFNWYVDGVEVHNAKTKPREEQYNSTYRVVSVLTVLHQDWLNGKEYKCKVSNKALPAPIEKTISKAKGQPREPQVYTLPPSRDELTKNQVSLTCLVKGFYPSDIAVEWESNGQPENNYKTTPPVLDSDGSFFLYSKLTVDKSRWQQGNVFSCSVMHEALKFHYTQKSLSLSPGK
notes: domain: Fc fragment; EU numbering
B2: Fc-IHH (other, human, UniProt P01857-1 104-330, looked up)
chain: B1 chain with A16G, Y32M, I33A, T34S, E36T, H90A, K213H, F214N, H215A
notes: domain: Fc fragment; IHH = I253A H310A H435A (EU numbering); also called IgG1-Fc-IHH
B3: Fc-MST-HN (other, human, UniProt P01857-1 104-330, looked up)
chain: B1 chain with A16G
notes: domain: Fc fragment; MST-HN = M252Y S254T T256E H433K N434F (EU numbering); also called IgG1-Fc MST-HN
B4: human FcγRIIIb-NA1 (receptor, UniProt O75015 17-200, looked up)
chain: GMRTEDLPKAVVFLEPQWYRVLEKDSVTLKCQGAYSPEDNSTQWFHNENLISSQASSYFIDAATVDDSGEYRCQTNLSTLSDPVQLEVHVGWLLLQAPRWVFKEEDPIHLRCHSWKNTALHKVTYLQNGKDRKYFHHNSDFHIPKATLKDSGSYFCRGLVGSKNVSSETVNITITQGLAVSTIS
modifications: C-terminal biotin
notes: In-house, C-terminally biotinylated; captured on a streptavidin sensor; also called hFcγRIIIb-NA1
B5: human FcγRIIIb-NA2 (receptor, UniProt O75015 17-200, looked up)
chain: B4 chain with R20S, N49S, D66N, V90I
modifications: C-terminal biotin
notes: In-house, C-terminally biotinylated; captured on a streptavidin sensor; also called hFcγRIIIb-NA2
B6: human FcγRIIa-131H (receptor, UniProt P12318 34-218, looked up)
chain: QAAAPPKAVLKLEPPWINVLQEDSVTLTCQGARSPESDSIQWFHNGNLIPTHTQPSYRFKANNNDSGEYTCQTGQTSLSDPVHLTVLSEWLVLQTPHLEFQEGETIMLRCHSWKDKPLVKVTFFQNGKSQKFSHLDPTFSIPQANHSHSGDYHCTGNIGYTLFSSKPVTITVQVPSMGSSSPMGI
modifications: C-terminal biotin
notes: Bought, C-terminally biotinylated; captured on a streptavidin sensor
B7: human FcγRIIa-131R (receptor, UniProt P12318 34-218, looked up)
chain: B6 chain with H134R
modifications: C-terminal biotin
notes: as for B6
B8: human FcγRIIb (receptor, UniProt P31994 43-217, looked up)
chain: TPAAPPKAVLKLEPQWINVLQEDSVTLTCRGTHSPESDSIQWFHNGNLIPTHTQPSYRFKANNNDSGEYTCQTGQTSLSDPVHLTVLSEWLVLQTPHLEFQEGETIVLRCHSWKDKPLVKVTFFQNGKSKKFSRSDPNFSIPQANHSHSGDYHCTGNIGYTLYSSKPVTITVQAP
modifications: C-terminal biotin
notes: Bought, C-terminally biotinylated; captured on a streptavidin sensor; also called hFcγRIIb
B9: Fc-ΔG236 (other)
chain: DKTHTCPPCPAPELLGPSVFLFPPKPKDTLMISRTPEVTCVVVDVSHEDPEVKFNWYVDGVEVHNAKTKPREEQYNSTYRVVSVLTVLHQDWLNGKEYKCKVSNKALPAPIEKTISKAKGQPREPQVYTLPPSRDELTKNQVSLTCLVKGFYPSDIAVEWESNGQPENNYKTTPPVLDSDGSFFLYSKLTVDKSRWQQGNVFSCSVMHEALHNHYTQKSLSLSPGK
B10: Fc-ΔG236-MST-HN (other)
chain: B9 chain with M31Y, S33T, T35E, H212K, N213F

How the values were obtained:
[1] = molecular target: T1, human FcRn, endogenous, in THP-1 cells and blood monocytes (human, UniProt P55899 24-365; P61769 21-119); assay: cell-based or functional assay
[2] = molecular target: T2, human FcγRIIa on THP-1 cells (human, UniProt P12318 34-317); assay: cell-based or functional assay
T2 sequence (looked up): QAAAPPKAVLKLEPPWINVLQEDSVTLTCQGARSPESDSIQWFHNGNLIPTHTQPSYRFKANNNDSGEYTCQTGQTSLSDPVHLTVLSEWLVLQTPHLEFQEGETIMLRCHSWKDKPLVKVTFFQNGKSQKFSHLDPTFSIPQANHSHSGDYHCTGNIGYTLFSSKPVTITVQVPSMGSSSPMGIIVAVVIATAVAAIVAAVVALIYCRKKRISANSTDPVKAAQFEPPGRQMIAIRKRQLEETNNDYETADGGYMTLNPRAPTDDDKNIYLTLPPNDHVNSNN

[3] = molecular target: B6; assay: SPR, Fc fragments on captured FcγRs, pH 7.4
Experimental: (§1) The sensor surface was regenerated between the cycles by subsequent injections of 20 mM Tris-HCl, 150 mM NaCl pH 8.8 and 20 mM H₃PO₄ pH 2.4. […] Regeneration of the sensor surface between the cycles was performed by injection of 10 mM Gly-HCl pH 2.4. Affinity calculations were carried out by performing an equilibrium analysis interpolating to an Rmax of 200 to 600, depending on the assay, and fitting a 1:1 Langmuir binding model, assuming equilibrium to be reached after 360s of IgG-Fc containing analyte injections. Analysis and calculations were performed using Scrubber Software Version 2 (BioLogic Software), Excel (Microsoft) and Graphpad Prism (Prism).

[4] = molecular target: B7; assay: SPR, Fc fragments on captured FcγRs, pH 7.4
Experimental: as §1

[5] = molecular target: T3, human FcγRIa (human, UniProt P12314 16-288); assay: SPR (IBIS MX96), FcγR captured on sensor, Fc fragment titrated, pH 7.4, equilibrium 1:1 fit
T3 construct: Bought, C-terminally His-tagged; captured on the sensor by biotinylated anti-His mIgG1; also called hFcγRIa; not shown: C-terminal His tag
Experimental: as §1

[6] = molecular target: T4, soluble human FcRn (human, UniProt P55899 24-297; P61769 21-119); assay: SPR (IBIS MX96), Fc fragment immobilised, soluble FcRn titrated, pH 6.0, equilibrium 1:1 fit
T4 construct: Made in HEK293F cells from two vectors; also called sFcRn; not shown: C-terminal BirA deca-His-tag
Experimental: (§2) Regeneration of the sensor surface between the cycles was performed by injection of 10 mM Gly-HCl pH 2.4. Affinity calculations were carried out by performing an equilibrium analysis interpolating to an Rmax of 200 to 600, depending on the assay, and fitting a 1:1 Langmuir binding model, assuming equilibrium to be reached after 360s of IgG-Fc containing analyte injections. Analysis and calculations were performed using Scrubber Software Version 2 (BioLogic Software), Excel (Microsoft) and Graphpad Prism (Prism).
(§3) Sensorgrams of a representative of three independent affinity measurements were used to determine the binding of the human IgG1-Fc variants to human FcγRs and human FcRn at pH 7.4 and pH 6.0. […] KD values were derived by performing an equilibrium analysis and fitting a 1:1 Langmuir binding model. […] No binding was marked as non-determinable (n.d.). Data are presented in Tables S1-S4 as mean±standard deviation.

[7] = molecular target: T4, soluble human FcRn; assay: SPR (IBIS MX96), Fc fragment immobilised, soluble FcRn titrated, pH 7.4, equilibrium 1:1 fit
Experimental: as §2, §3

[8] = molecular target: T5, human FcγRIIIa-158F (human, UniProt P08637 17-208, C-terminal biotin); assay: SPR, Fc fragments on captured FcγRs, pH 7.4
T5 construct: Bought, C-terminally biotinylated; captured on a streptavidin sensor; also called hFcγRIIIa-158F
Experimental: as §1

[9] = molecular target: T6, human FcγRIIIa-158V (human, UniProt P08637 17-208, C-terminal biotin); assay: SPR, Fc fragments on captured FcγRs, pH 7.4
T6 construct: Bought, C-terminally biotinylated; captured on a streptavidin sensor; also called hFcγRIIIa-158V
Experimental: as §1

[10] = molecular target: B4; assay: SPR, Fc fragments on captured FcγRs, pH 7.4
Experimental: as §1

[11] = molecular target: B5; assay: SPR, Fc fragments on captured FcγRs, pH 7.4
Experimental: as §1

[12] = molecular target: T1, human FcRn, endogenous, in THP-1 cells …; assay: intracellular FcRn occupancy assay, flow cytometry: THP-1 FcγRIIa K.O. cells preloaded with IVIg, free FcRn stained with DL650-labeled anti-FcRn Fab
Experimental: In short, 1×10⁵ cells were loaded with 5-fold dilution series of IgG variants and fragments thereof for 2 h, ranging from 4 to 500 nM under culture conditions, as specified above. […] 95 μL of this cell solution was then combined with 5 μL of 20× concentrated dilution series of IgG variants and incubated for another 2 h under culture conditions. Thereafter, cells were transferred to 96-well V-bottom plate (Corning) and incubated on ice for 2 min. Cells were subsequently spun down for 3 min at 450×g at 4° C. and the supernatant was discarded. Following the same procedure, cells were washed five times with 150 μL ice-cold medium, followed by one wash with 150 μL 1×PBS supplemented with 1% (v/v) FCS at pH 7.4 and one wash with 150 μL of 1×PBS supplemented with 1% (v/v) FCS at pH 6.0. Cells were then fixed and permeabilized using both solutions of a Fixation/Permeabilization Kit (BD Biosciences) adapted to pH 6.0 after addition of MES (Thermo Fisher Scientific) to a final concentration of 0.5M, otherwise following manufacturer's instructions. […] Cells were washed twice with 150 μL 1×PBS supplemented with 1% (v/v) FCS at pH 6.0, spun down at 450×g at 4° C. for 3 min and the supernatants were discarded. Finally, cells were resuspended in 50 μL of the same buffer, transferred to Micronics tubes (Micronic) on ice and measured in flow cytometry.

[13] = molecular target: T7, Fc-WT (human, UniProt P01857-1 104-330 = IgG part, limits assumed); assay: SPR (IBIS MX96), FcγR captured on sensor, Fc fragment titrated, pH 7.4, equilibrium 1:1 fit
T7 construct: domain: Fc fragment; Fc-only fragment made by Evitria; also called IgG1-Fc wild-type; human IgG1-Fc fragment WT
Experimental: as §1

[14] = molecular target: T8, Fc-G236A (human, UniProt P01857-1 104-330 = IgG part, G236A); assay: as above
T8 construct: domain: Fc fragment; Positions in EU numbering; also called IgG1-Fc G236A
Experimental: as §1

[15] = molecular target: B2; assay: as above
Experimental: as §1

[16] = molecular target: B3; assay: as above
Experimental: as §1

[17] = molecular target: B1; assay: as above
Experimental: as §1

T4 sequence (P55899 24-297, chain 1 of 2): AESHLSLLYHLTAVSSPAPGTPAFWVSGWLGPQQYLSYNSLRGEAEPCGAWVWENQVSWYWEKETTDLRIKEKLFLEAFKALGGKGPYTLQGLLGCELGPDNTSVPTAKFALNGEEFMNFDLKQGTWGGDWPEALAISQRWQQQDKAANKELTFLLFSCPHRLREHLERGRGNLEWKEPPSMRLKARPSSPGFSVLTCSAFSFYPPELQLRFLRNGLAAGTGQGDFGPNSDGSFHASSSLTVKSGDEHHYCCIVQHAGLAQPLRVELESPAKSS
T4 sequence (P61769 21-119, chain 2 of 2): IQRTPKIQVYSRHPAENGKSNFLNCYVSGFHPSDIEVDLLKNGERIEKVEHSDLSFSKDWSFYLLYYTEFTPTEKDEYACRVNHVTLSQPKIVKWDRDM
T3 sequence (P12314 16-288 limits assumed): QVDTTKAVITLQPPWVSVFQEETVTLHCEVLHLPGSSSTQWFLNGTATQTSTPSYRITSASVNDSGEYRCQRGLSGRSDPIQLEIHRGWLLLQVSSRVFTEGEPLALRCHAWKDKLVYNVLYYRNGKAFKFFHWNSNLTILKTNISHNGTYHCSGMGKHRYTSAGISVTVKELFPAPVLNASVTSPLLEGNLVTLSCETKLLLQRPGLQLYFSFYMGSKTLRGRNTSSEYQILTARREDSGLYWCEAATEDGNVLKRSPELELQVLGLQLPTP
T1 sequence (P55899 24-365 limits assumed, chain 1 of 2): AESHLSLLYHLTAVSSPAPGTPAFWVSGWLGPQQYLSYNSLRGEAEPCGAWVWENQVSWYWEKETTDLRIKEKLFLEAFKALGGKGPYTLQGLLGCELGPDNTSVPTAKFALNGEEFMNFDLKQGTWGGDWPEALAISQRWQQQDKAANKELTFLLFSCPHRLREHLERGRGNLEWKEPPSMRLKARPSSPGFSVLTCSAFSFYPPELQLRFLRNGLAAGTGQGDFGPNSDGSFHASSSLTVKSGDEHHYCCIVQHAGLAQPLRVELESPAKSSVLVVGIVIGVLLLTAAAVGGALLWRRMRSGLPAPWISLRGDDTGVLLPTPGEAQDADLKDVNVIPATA
T1 sequence (P61769 21-119 limits assumed, chain 2 of 2): as the sequence (P61769 21-119, chain 2 of 2) above

Binder	Kd [5] [nM]	Kd [6] [nM]	Kd [7] [nM]	Kd [14] [nM]	Kd [15] [nM]	Kd [16] [nM]	Kd [17] [nM]	also measured
B1	10.8	23.4	1340	–	–	–	–	Fold-intensity of intracellular accumulation compared to Fc-WT (Image Stream, THP-1 cells) [1]: 1.87 fold of Fc-WT; Fold-intensity of intracellular accumulation compared to Fc-WT (Image Stream, THP-1 cells) [2]: 1.87 fold of Fc-WT; fold increase in affinity compared to Fc-MST-HN [3]: ~9 fold; fold increase in binding compared to Fc-WT [3]: 2 fold; fold increase in affinity compared to Fc-MST-HN [4]: ~6 fold; fold increase in binding compared to Fc-WT [4]: 2 fold
B2	6.1	–	–	–	–	–	–	fold reduction in binding compared to Fc-WT [3]: ≥ 3 fold; fold reduction in binding compared to Fc-WT [4]: ≥ 3 fold; fold reduction in binding compared to Fc-WT [8]: ≥ 3 fold; fold reduction in binding compared to Fc-WT [9]: ≥ 3 fold; fold reduction in binding compared to Fc-WT [10]: ≥ 3 fold; fold reduction in binding compared to Fc-WT [11]: ≥ 3 fold; binding result [12]: no binding (tested: 500 nM)
B3	5.9	18.9	1410	–	–	–	–	fold reduction in binding compared to Fc-WT [3]: ≥ 3 fold; fold reduction in binding compared to Fc-WT [4]: ≥ 3 fold; fold reduction in binding compared to Fc-WT [8]: ≥ 3 fold; fold reduction in binding compared to Fc-WT [9]: ≥ 3 fold; fold reduction in binding compared to Fc-WT [10]: ≥ 3 fold; fold reduction in binding compared to Fc-WT [11]: ≥ 3 fold
B4	–	–	–	> 2000	> 2000	> 2000	> 2000	Kd [13]: > 2000 nM
B5	–	–	–	> 2000	> 2000	> 2000	> 2000	Kd [13]: > 2000 nM
B6	–	–	–	91.1	> 2000	1650	189	–
B7	–	–	–	166	> 2000	1640	269	–
B8	–	–	–	> 2000	> 2000	> 2000	> 2000	–
B9	–	130	–	–	–	–	–	–
B10	–	15.4	1420	–	–	–	–	–
